T1: UBE2N (human, UniProt P61088 1-152)
T1 construct: endogenous prey from cell lysate; also called UBC13
T1 sequence (looked up): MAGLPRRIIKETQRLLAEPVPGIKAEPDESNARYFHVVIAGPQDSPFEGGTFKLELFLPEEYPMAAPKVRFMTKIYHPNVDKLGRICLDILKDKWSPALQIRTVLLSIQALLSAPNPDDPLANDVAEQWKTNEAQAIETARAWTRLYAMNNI


Target: T1, UBE2N
Experiment: AP-MS, PPI score from compPASS and SAINTexpress, MDA-MB-231 cells
Description: For AP-MS experiments, samples were resuspended in 15 μL of MS loading buffer (4% formic acid, 2% acetonitrile) and 2 μL were separated by a reversed-phase gradient over a nanoflow 75 μm ID×25 cm long picotip column packed with 1.9 μM C18 particles (Dr. Maisch). Peptides were directly injected over the course of a 75 min acquisition into a Q-Exactive Plus mass spectrometer (Thermo), or over the course of a 90 min acquisition into a Orbitrap Elite mass spectrometer. […] Peptides and proteins were filtered to 1% false discovery rate in MaxQuant, and identified proteins were then subjected to protein-protein interaction scoring.
All PPI scoring was performed separately for each cell line. For SAINTexpress, control samples in which bait protein was not induced by addition of doxycycline were used. For CompPASS, a stats table representing all WT baits was used. After scoring, the CompPASS WD and Z-score were normalized within a given bait for each cell line. The total list of candidate PPIs was filtered to those that met the following criteria: SAINTexpress BFDR=<0.05, WD percentile by bait>=0.95, and Z-score percentile by bait≤=0.95. PPIs passing all 3 of these criteria were considered to be high-confidence PPIs. To enable visualization and analysis of PPIs by confidence score among these 3 criteria, a PPI score was calculated: [(WD percentile by bait+Z-score percentile by bait)/2)+(1−BFDR)]/2.

Row | Binder | PPI score
1 | BRCA1 C61G (enzyme, human, UniProt P38398 1-1863, looked up, 3xFLAG-tagged bait; also called RING domain mutant C61G) MDLSALRVEEVQNVINAMQKILECPICLELIKEPVSTKCDHIFCKFCMLKLLNQKKGPSQGPLCKNDITKRSLQESTRFSQLVEELLKIICAFQLDTGLEYANSYNFAKKENNSPEHLKDEVSIIQSMGYRNRAKRLLQSEPENPSLQETSLSVQLSNLGTVRTLRTKQRIQPQKTSVYIELGSDSSEDTVNKATYCSVGDQELLQITPQGTRDEISLDSAKKAACEFSETDVTNTEHHQPSNNDLNTTEKRAAERHPEKYQGSSVSNLHVEPCGTNTHASSLQHENSSLLLTKDRMNVEKAEFCNKSKQPGLARSQHNRWAGSKETCNDRRTPSTEKKVDLNADPLCERKEWNKQKLPCSENPRDTEDVPWITLNSSIQKVNEWFSRSDELLGSDDSHDGESESNAKVADVLDVLNEVDEYSGSSEKIDLLASDPHEALICKSERVHSKSVESNIEDKIFGKTYRKKASLPNLSHVTENLIIGAFVTEPQIIQERPLTNKLKRKRRPTSGLHPEDFIKKADLAVQKTPEMINQGTNQTEQNGQVMNITNSGHENKTKGDSIQNEKNPNPIESLEKESAFKTKAEPISSSISNMELELNIHNSKAPKKNRLRRKSSTRHIHALELVVSRNLSPPNCTELQIDSCSSSEEIKKKKYNQMPVRHSRNLQLMEGKEPATGAKKSNKPNEQTSKRHDSDTFPELKLTNAPGSFTKCSNTSELKEFVNPSLPREEKEEKLETVKVSNNAEDPKDLMLSGERVLQTERSVESSSISLVPGTDYGTQESISLLEVSTLGKAKTEPNKCVSQCAAFENPKGLIHGCSKDNRNDTEGFKYPLGHEVNHSRETSIEMEESELDAQYLQNTFKVSKRQSFAPFSNPGNAEEECATFSAHSGSLKKQSPKVTFECEQKEENQGKNESNIKPVQTVNITAGFPVVGQKDKPVDNAKCSIKGGSRFCLSSQFRGNETGLITPNKHGLLQNPYRIPPLFPIKSFVKTKCKKNLLEENFEEHSMSPEREMGNENIPSTVSTISRNNIRENVFKEASSSNINEVGSSTNEVGSSINEIGSSDENIQAELGRNRGPKLNAMLRLGVLQPEVYKQSLPGSNCKHPEIKKQEYEEVVQTVNTDFSPYLISDNLEQPMGSSHASQVCSETPDDLLDDGEIKEDTSFAENDIKESSAVFSKSVQKGELSRSPSPFTHTHLAQGYRRGAKKLESSEENLSSEDEELPCFQHLLFGKVNNIPSQSTRHSTVATECLSKNTEENLLSLKNSLNDCSNQVILAKASQEHHLSEETKCSASLFSSQCSELEDLTANTNTQDPFLIGSSKQMRHQSESQGVGLSDKELVSDDEERGTGLEENNQEEQSMDSNLGEAASGCESETSVSEDCSGLSSQSDILTTQQRDTMQHNLIKLQQEMAELEAVLEQHGSQPSNSYPSIISDSSALEDLRNPEQSTSEKAVLTSQKSSEYPISQNPEGLSADKFEVSADSSTSKNKEPGVERSSPSKCPSLDDRWYMHSCSGSLQNRNYPSQEELIKVVDVEEQQLEESGPHDLTETSYLPRQDLEGTPYLESGISLFSDDPESDPSEDRAPESARVGNIPSSTSALKVPQLKVAESAQSPAAAHTTDTAGYNAMEESVSREKPELTASTERVNKRMSMVVSGLTPEEFMLVYKFARKHHITLTNLITEETTHVVMKTDAEFVCERTLKYFLGIAGGKWVVSYFWVTQSIKERKMLNEHDFEVRGDVVNGRNHQGPKRARESQDRKIFRGLEICCYGPFTNMPTDQLEWMVQLCGASVVKELSSFTLGTGVHPIVVVQPDAWTEDNGFHAIGQMCEAPVVTREWVLDSVALYQCQELDTYLIPQIPHSHY | < 0.6
2 | BRCA1 M1775R (enzyme, human, UniProt P38398 1-1863, looked up, 3xFLAG-tagged bait; also called BRCT domain mutant M1775R) MDLSALRVEEVQNVINAMQKILECPICLELIKEPVSTKCDHIFCKFCMLKLLNQKKGPSQCPLCKNDITKRSLQESTRFSQLVEELLKIICAFQLDTGLEYANSYNFAKKENNSPEHLKDEVSIIQSMGYRNRAKRLLQSEPENPSLQETSLSVQLSNLGTVRTLRTKQRIQPQKTSVYIELGSDSSEDTVNKATYCSVGDQELLQITPQGTRDEISLDSAKKAACEFSETDVTNTEHHQPSNNDLNTTEKRAAERHPEKYQGSSVSNLHVEPCGTNTHASSLQHENSSLLLTKDRMNVEKAEFCNKSKQPGLARSQHNRWAGSKETCNDRRTPSTEKKVDLNADPLCERKEWNKQKLPCSENPRDTEDVPWITLNSSIQKVNEWFSRSDELLGSDDSHDGESESNAKVADVLDVLNEVDEYSGSSEKIDLLASDPHEALICKSERVHSKSVESNIEDKIFGKTYRKKASLPNLSHVTENLIIGAFVTEPQIIQERPLTNKLKRKRRPTSGLHPEDFIKKADLAVQKTPEMINQGTNQTEQNGQVMNITNSGHENKTKGDSIQNEKNPNPIESLEKESAFKTKAEPISSSISNMELELNIHNSKAPKKNRLRRKSSTRHIHALELVVSRNLSPPNCTELQIDSCSSSEEIKKKKYNQMPVRHSRNLQLMEGKEPATGAKKSNKPNEQTSKRHDSDTFPELKLTNAPGSFTKCSNTSELKEFVNPSLPREEKEEKLETVKVSNNAEDPKDLMLSGERVLQTERSVESSSISLVPGTDYGTQESISLLEVSTLGKAKTEPNKCVSQCAAFENPKGLIHGCSKDNRNDTEGFKYPLGHEVNHSRETSIEMEESELDAQYLQNTFKVSKRQSFAPFSNPGNAEEECATFSAHSGSLKKQSPKVTFECEQKEENQGKNESNIKPVQTVNITAGFPVVGQKDKPVDNAKCSIKGGSRFCLSSQFRGNETGLITPNKHGLLQNPYRIPPLFPIKSFVKTKCKKNLLEENFEEHSMSPEREMGNENIPSTVSTISRNNIRENVFKEASSSNINEVGSSTNEVGSSINEIGSSDENIQAELGRNRGPKLNAMLRLGVLQPEVYKQSLPGSNCKHPEIKKQEYEEVVQTVNTDFSPYLISDNLEQPMGSSHASQVCSETPDDLLDDGEIKEDTSFAENDIKESSAVFSKSVQKGELSRSPSPFTHTHLAQGYRRGAKKLESSEENLSSEDEELPCFQHLLFGKVNNIPSQSTRHSTVATECLSKNTEENLLSLKNSLNDCSNQVILAKASQEHHLSEETKCSASLFSSQCSELEDLTANTNTQDPFLIGSSKQMRHQSESQGVGLSDKELVSDDEERGTGLEENNQEEQSMDSNLGEAASGCESETSVSEDCSGLSSQSDILTTQQRDTMQHNLIKLQQEMAELEAVLEQHGSQPSNSYPSIISDSSALEDLRNPEQSTSEKAVLTSQKSSEYPISQNPEGLSADKFEVSADSSTSKNKEPGVERSSPSKCPSLDDRWYMHSCSGSLQNRNYPSQEELIKVVDVEEQQLEESGPHDLTETSYLPRQDLEGTPYLESGISLFSDDPESDPSEDRAPESARVGNIPSSTSALKVPQLKVAESAQSPAAAHTTDTAGYNAMEESVSREKPELTASTERVNKRMSMVVSGLTPEEFMLVYKFARKHHITLTNLITEETTHVVMKTDAEFVCERTLKYFLGIAGGKWVVSYFWVTQSIKERKMLNEHDFEVRGDVVNGRNHQGPKRARESQDRKIFRGLEICCYGPFTNRPTDQLEWMVQLCGASVVKELSSFTLGTGVHPIVVVQPDAWTEDNGFHAIGQMCEAPVVTREWVLDSVALYQCQELDTYLIPQIPHSHY | < 0.6
